According to US20240050583A1 (HARBOUR BIOMED SHANGHAI, published 2024):
Each block holds one binder with its values, some of them ahead of it.

What was measured:
[1] = target: T1, human BCMA (human, UniProt Q02223 1-184); assay: flow cytometry (FACS) on HEK293T-hBCMA and NCI-H929 cells, legend of FIG. 32
T1 construct: whole, on cells; also called hBCMA; tumor necrosis factor receptor superfamily member 17
T1 sequence (looked up): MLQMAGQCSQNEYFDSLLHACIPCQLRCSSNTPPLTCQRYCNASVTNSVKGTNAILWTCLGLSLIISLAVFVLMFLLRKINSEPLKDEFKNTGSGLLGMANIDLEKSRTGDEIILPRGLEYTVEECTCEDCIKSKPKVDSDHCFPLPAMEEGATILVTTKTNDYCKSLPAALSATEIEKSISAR

[2] = target: T2, human 5T4 (human, UniProt Q13641 32-420); assay: flow cytometry (FACS) on HCC1954 cells highly expressing human 5T4
T2 construct: whole, on cells; also called trophoblast glycoprotein; TPBG
T2 sequence (looked up): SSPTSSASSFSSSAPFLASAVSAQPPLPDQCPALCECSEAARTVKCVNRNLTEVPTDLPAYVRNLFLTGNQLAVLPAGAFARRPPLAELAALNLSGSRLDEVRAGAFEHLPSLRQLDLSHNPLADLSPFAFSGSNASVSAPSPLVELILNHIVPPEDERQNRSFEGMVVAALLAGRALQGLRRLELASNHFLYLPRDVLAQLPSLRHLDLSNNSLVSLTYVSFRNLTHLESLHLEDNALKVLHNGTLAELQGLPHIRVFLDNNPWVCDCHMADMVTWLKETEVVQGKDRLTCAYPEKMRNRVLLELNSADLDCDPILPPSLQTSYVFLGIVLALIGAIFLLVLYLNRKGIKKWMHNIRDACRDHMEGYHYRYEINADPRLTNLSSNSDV
Description: The binding ability of the antibody molecules to a human breast cancer cell strain HCC1954 (ATCC, CRL-2338) highly expressing human 5T4 was determined by flow cytometry FACS. Specifically, the cell density was adjusted to 1×10⁶ cells/mL. The cells were seeded in a 96-well V-bottom plate (Corning, #3894) at 100 μL/well, followed by the addition of test antibodies diluted in a 3-fold gradient at a concentration that was 2 times the final concentration, each at 100 μL/well. The cells were incubated at 4° C. for 1 h away from light. Thereafter, the cells in each well were rinsed twice with 100 μL of pre-cooled PBS, and centrifuged at 500 g at 4° C. for 5 min, and then the supernatant was discarded. Thereafter, a fluorescent secondary antibody (Alexa Fluor 488-conjugated AffiniPure Goat Anti-Human IgG, Fcγ Fragment Specific, Jackson ImmunoResearch Inc., #109-545-098, diluted in a 1:500 ratio) was added at 100 μL/well, and the plate was incubated at 4° C. for 30 min away from light. The cells in each well were then rinsed twice with 100 μL of pre-cooled PBS and centrifuged at 500 g at 4° C. for 5 min, and then the supernatant was discarded. Finally, the cells in each well were resuspended in 200 μL of pre-cooled PBS. Fluorescence signal values were read using a BD FACS CANTOII flow cytometer, and the data were processed and analyzed using FlowJo v10 (FlowJo, LLC) software.

binding result [1]: binds
B1: PR004433-ADC (antibody, human IgG1, V domains shown)
VH: EVQLVETGGGLIQPGGSLRLSCAASGFTVSDSYMTWVRQAPGKGLEWVSVIFSGGRTYYSDSVKGRFTISRDNAKNTLYLQMNSLRAEDTALYYCARRNYDDTRGTDVFDIWGQGTMVTVSS
modifications: mc-vc-PAB-MMAE coupled to Cys-220 (Eu numbering; 98% of the site coupled)
notes: Coupling product of HCAb PR004433 with mc-vc-PAB-MMAE, main component DAR=2; also called coupling product PR004433-ADC

binding result [2]: binds
B2: HCAb PR004432 (antibody, human IgG1, V domains shown)
VH: EVQLQQSGPGLVKPSQTLSLTCAISGDSVSNNYAAWNWIRQSPSRGLEWLGRTYYRSKWYNDYAVSVKSRITINPDTSKNQFSLQLNRVTPEDTAVYYCARDNYYGSGSPPVDALDIWGQGTMVTVSS
notes: Fully human heavy-chain-only antibody with human IgG1 hinge and Fc; also called 1041P014H2; anti-5T4 HCAb antibody PR004432

binding result [2]: binds
B3: PR004432-ADC (antibody, human IgG1, V domains shown)
VH: B2 VH
modifications: mc-vc-PAB-MMAE coupled to Cys-220 (Eu numbering; 97.12% of the site coupled)
notes: Purified coupling product of HCAb PR004432 with mc-vc-PAB-MMAE, main component DAR=2; also called coupling product PR004432-ADC
